Test results published in patent US20090093061A1.

Assays:
Assay in all cases: GroEL-490 bead column capture of denatured serum, ATP elution, LC-MS-MS
[1] = target: complement component 4B proprotein (Homo sapiens) (UniProt P0C0L5)
[2] = target: peroxisome biogenesis factor 13 (Homo sapiens) (UniProt Q92968)
[3] = target: WD repeat membrane protein PWDMP (Homo sapiens) (UniProt Q8NEZ3)
[4] = target: zinc finger protein 28 (Homo sapiens) (UniProt Q8NHY6)
[5] = target: 3-phosphoinositide dependent protein kinase-1 (Homo sapiens) (UniProt O15530)
[6] = target: phosphoinositol 3-phosphate-binding protein-2 (Homo sapiens) (UniProt Q9HAU0)
[7] = target: ectonucleoside triphosphate diphosphohydrolase 7 (Homo sapiens) (UniProt Q9NQZ7)
keratin 1 (Homo sapiens) = keratin 1 (Homo sapiens) (UniProt P04264)
[8] = target: SPRY domain-containing SOCS box protein SSB-4 (Homo sapiens) (UniProt Q96A44)
[9] = target: alpha 1 type IX collagen isoform 1 precursor (Homo sapiens) (UniProt P20849)
[10] = target: ceruloplasmin (ferroxidase) (Homo sapiens) (UniProt P00450)
[11] = target: Rho GTPase activating protein 5 (Homo sapiens) (UniProt Q13017)
KIAA0317 (Homo sapiens) = KIAA0317 (Homo sapiens) (UniProt O15033)
[12] = target: apolipoprotein A-I precursor (Homo sapiens) (UniProt P02647)
[13] = target: alpha 2 type XI collagen isoform 3 preproprotein (Homo sapiens) (UniProt P13942)
hemopexin (Homo sapiens) = hemopexin (Homo sapiens) (UniProt P02790)
[14] = target: hypothetical protein XP_378639 (Homo sapiens)
[15] = target: coronin, actin binding protein, 1B (Homo sapiens) (UniProt Q9BR76)
[16] = target: DNA polymerase theta isoform 1 (Homo sapiens) (UniProt O75417)
[17] = target: E74-like factor 4 (ets domain transcription factor) (Homo sapiens) (UniProt Q99607)
[18] = target: titin isoform novex-2 (Homo sapiens) (UniProt Q8WZ42)
[19] = target: insulin-like 6 precursor (Homo sapiens) (UniProt Q9Y581)
[20] = target: DNA fragmentation factor, 45 kD, alpha polypeptide (Homo sapiens) (UniProt O00273)
[21] = target: zinc finger protein 469 (Homo sapiens) (UniProt Q96JG9)
[22] = target: similar to ataxin 2 binding protein 1 isoform gamma (Homo sapiens)
[23] = target: hematopoletic protein 1 (Homo sapiens) (UniProt P55160)
[24] = target: similar to BC331191_1 (Homo sapiens)
[25] = target: very large G-protein coupled receptor 1 (Homo sapiens) (UniProt Q8WXG9)
[26] = target: v-raf murine sarcoma 3611 viral oncogene homolog 1 (Homo sapiens) (UniProt P10398)
[27] = target: hypothetical protein FLJ35834 (Homo sapiens)
[28] = target: similar to hypothetical protein (Homo sapiens)
[29] = target: H factor 1 (complement) (Homo sapiens) (UniProt P08603)
[30] = target: p47 protein isoform a (Homo sapiens) (UniProt Q9UNZ2)
[31] = target: Hpall tiny fragments locus 9C isoform2 (Homo sapiens) (UniProt Q8IZ69)
[32] = target: albumin precursor (Homo sapiens) (UniProt P02768)

GroEL having Aspartate 490 substituted with Cysteine, biotinylated and conjugated onto NeutrAvidin beads, sequence (A1AJ51 whole entry D490C): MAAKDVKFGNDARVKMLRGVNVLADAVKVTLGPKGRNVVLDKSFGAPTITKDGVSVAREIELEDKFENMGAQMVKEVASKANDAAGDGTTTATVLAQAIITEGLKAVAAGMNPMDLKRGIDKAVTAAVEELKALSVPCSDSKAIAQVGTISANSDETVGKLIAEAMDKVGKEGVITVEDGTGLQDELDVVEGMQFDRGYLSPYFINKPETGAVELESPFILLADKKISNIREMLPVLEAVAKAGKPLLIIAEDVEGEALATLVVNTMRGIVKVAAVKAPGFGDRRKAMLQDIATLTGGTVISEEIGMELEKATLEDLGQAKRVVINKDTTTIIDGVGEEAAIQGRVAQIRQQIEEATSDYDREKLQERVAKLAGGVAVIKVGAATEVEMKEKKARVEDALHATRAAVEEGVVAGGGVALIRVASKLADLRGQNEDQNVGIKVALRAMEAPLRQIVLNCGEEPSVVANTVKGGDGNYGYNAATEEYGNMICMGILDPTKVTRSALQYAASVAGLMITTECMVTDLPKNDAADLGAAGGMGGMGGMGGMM
ectonucleoside triphosphate diphosphohydrolase 7 (Homo sapiens), sequence (Q9NQZ7 whole entry): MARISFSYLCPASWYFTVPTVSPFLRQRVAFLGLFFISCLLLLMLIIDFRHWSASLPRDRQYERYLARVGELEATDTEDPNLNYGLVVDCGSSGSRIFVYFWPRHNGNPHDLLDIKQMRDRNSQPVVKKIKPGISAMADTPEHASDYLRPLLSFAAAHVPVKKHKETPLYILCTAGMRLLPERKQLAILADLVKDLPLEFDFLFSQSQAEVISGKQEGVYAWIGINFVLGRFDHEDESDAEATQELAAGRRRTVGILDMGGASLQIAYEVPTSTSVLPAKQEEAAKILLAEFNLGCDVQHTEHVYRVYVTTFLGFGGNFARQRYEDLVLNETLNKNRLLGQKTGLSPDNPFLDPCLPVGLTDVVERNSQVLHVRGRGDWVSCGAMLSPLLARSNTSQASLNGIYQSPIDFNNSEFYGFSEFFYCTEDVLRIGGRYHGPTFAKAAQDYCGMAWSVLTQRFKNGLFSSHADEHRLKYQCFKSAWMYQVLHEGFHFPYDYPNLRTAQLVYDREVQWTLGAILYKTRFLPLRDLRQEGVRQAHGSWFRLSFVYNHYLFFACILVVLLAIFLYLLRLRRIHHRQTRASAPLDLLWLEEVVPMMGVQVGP
phosphoinositol 3-phosphate-binding protein-2 (Homo sapiens), sequence (Q9HAU0 2-1116 limits assumed): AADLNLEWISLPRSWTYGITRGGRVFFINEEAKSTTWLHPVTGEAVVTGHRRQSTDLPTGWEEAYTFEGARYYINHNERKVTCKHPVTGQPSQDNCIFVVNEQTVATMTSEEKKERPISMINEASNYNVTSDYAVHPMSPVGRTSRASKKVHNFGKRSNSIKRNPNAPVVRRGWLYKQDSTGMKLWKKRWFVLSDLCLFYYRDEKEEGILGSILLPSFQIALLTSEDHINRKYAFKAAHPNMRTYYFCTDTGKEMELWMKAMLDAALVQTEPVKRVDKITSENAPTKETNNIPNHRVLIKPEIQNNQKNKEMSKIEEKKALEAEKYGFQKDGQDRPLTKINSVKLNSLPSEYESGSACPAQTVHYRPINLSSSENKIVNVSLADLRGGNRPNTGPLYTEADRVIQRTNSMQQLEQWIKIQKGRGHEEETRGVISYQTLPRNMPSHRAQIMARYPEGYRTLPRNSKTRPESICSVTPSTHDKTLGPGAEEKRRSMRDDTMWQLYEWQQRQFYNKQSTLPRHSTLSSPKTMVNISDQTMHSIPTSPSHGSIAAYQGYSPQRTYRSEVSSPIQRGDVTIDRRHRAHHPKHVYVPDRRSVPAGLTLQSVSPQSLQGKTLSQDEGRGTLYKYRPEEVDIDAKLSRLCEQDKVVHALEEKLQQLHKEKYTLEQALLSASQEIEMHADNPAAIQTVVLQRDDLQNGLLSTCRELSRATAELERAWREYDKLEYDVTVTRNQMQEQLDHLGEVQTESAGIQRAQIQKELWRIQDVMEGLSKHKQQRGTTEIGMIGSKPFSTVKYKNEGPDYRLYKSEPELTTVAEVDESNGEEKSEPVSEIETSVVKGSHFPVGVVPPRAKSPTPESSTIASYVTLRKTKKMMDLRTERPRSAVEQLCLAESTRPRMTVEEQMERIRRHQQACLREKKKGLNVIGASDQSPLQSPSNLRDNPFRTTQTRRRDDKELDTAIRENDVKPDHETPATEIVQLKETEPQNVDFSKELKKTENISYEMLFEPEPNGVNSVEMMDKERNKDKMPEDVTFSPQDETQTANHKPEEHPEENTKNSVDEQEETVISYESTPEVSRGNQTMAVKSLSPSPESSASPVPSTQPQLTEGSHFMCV
keratin 1 (Homo sapiens), sequence (P04264 2-644 limits assumed): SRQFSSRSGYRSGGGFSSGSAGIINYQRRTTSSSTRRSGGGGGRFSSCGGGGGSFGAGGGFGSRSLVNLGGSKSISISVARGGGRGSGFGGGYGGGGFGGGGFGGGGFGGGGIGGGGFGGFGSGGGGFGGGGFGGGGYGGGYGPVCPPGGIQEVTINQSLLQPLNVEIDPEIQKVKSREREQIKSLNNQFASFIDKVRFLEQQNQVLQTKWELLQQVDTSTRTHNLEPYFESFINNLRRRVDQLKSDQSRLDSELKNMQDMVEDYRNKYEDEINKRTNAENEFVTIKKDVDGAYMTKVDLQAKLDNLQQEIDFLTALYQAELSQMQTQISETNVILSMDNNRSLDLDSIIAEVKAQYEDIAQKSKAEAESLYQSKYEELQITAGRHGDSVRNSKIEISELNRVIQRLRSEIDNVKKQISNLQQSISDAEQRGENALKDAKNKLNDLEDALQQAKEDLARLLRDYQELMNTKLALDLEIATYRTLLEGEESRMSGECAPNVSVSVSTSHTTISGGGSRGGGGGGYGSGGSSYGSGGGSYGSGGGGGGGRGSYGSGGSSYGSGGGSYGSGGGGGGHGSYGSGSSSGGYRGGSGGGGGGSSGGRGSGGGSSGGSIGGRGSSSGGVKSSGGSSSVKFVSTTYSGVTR
SPRY domain-containing SOCS box protein SSB-4 (Homo sapiens), sequence (Q96A44 whole entry, the tested form may be a part, canonical isoform): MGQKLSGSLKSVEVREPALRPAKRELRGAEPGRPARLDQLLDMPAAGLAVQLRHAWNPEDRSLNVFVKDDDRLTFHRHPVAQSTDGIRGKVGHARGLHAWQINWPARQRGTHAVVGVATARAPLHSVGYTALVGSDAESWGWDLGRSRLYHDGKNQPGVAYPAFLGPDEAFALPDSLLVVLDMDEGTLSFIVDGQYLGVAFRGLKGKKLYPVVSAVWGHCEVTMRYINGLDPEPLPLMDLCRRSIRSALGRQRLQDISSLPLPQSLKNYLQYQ
v-raf murine sarcoma 3611 viral oncogene homolog 1 (Homo sapiens), sequence (P10398 whole entry): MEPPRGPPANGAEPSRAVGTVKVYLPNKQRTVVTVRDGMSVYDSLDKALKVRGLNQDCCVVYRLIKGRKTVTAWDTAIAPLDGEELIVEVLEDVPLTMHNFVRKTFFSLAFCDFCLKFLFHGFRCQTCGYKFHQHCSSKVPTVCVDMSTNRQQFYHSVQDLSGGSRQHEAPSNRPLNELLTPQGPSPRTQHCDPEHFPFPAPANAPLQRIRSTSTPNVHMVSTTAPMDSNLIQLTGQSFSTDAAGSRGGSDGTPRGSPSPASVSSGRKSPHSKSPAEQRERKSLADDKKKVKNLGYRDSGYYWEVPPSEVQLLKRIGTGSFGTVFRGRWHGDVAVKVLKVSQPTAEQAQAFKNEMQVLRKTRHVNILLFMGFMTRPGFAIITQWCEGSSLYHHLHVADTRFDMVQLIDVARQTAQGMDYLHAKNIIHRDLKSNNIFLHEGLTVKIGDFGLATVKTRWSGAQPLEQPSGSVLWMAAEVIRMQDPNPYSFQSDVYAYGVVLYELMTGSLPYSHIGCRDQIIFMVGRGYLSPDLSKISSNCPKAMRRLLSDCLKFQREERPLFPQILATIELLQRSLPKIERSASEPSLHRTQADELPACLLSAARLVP
coronin, actin binding protein, 1B (Homo sapiens), sequence (Q9BR76 whole entry, canonical isoform): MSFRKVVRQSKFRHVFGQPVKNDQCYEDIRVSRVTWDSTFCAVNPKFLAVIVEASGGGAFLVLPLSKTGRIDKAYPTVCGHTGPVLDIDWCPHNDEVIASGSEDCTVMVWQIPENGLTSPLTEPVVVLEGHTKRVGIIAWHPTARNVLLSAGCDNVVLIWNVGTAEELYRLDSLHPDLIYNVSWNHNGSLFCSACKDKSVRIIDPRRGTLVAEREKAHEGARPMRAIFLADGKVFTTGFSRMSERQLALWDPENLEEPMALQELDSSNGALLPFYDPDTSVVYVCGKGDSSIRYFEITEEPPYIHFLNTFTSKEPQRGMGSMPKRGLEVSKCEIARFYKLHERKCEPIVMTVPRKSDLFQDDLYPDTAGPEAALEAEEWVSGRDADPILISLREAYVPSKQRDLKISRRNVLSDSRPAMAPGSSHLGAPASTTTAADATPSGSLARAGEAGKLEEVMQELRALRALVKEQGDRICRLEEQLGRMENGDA
insulin-like 6 precursor (Homo sapiens), sequence (Q9Y581 21-213 limits assumed): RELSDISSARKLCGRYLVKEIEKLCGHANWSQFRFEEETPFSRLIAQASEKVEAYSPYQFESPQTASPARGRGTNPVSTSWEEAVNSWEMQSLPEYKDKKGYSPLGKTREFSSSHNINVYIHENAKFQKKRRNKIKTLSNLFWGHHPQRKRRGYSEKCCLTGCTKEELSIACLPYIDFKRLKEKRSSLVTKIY
apolipoprotein A-I precursor (Homo sapiens), sequence (P02647 25-267 limits assumed): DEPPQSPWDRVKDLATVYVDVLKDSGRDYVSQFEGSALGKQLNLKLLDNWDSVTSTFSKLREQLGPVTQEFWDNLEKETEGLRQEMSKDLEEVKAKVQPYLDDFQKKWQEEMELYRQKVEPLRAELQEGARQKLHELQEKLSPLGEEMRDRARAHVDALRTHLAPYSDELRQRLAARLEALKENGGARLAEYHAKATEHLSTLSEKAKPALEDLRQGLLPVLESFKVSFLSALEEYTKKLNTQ

## GroEL having Aspartate 490 substituted with Cysteine, biotinylated and conjugated onto NeutrAvidin beads (from UniProt A1AJ51 1-548)
[1]
  Spectrum Count: 11 count
[2]
  Spectrum Count: 38 count
[3]
  Spectrum Count: 16 count
[4]
  Spectrum Count: 18 count
[5]
  Spectrum Count: 13 count
[6]
  Spectrum Count: 9 count
[7]
  Spectrum Count: 41 count
Keratin 1 (Homo sapiens)
  Spectrum Count: 16 count
[8]
  Spectrum Count: 30 count
[9]
  Spectrum Count: 10 count
[10]
  Spectrum Count: 19 count
[11]
  Spectrum Count: 12 count
KIAA0317 (Homo sapiens)
  Spectrum Count: 10 count
[12]
  Spectrum Count: 13 count
[13]
  Spectrum Count: 10 count
Hemopexin (Homo sapiens)
  Spectrum Count: 35 count
[14]
  Spectrum Count: 14 count
[15]
  Spectrum Count: 28 count
[16]
  Spectrum Count: 24 count
[17]
  Spectrum Count: 17 count
[18]
  Spectrum Count: 56 count
[19]
  Spectrum Count: 13 count
[20]
  Spectrum Count: 14 count
[21]
  Spectrum Count: 13 count
[22]
  Spectrum Count: 11 count
[23]
  Spectrum Count: 35 count
[24]
  Spectrum Count: 19 count
[25]
  Spectrum Count: 14 count
[26]
  Spectrum Count: 13 count
[27]
  Spectrum Count: 9 count
[28]
  Spectrum Count: 13 count
[29]
  Spectrum Count: 12 count
[30]
  Spectrum Count: 22 count
[31]
  Spectrum Count: 34 count
[32]
  Spectrum Count: 475 count
